Where two headings read alike, the source gives them in different places.
T1: recombinant LepR-Fc fusion protein (human, UniProt P48357 22-839)
T1 sequence (looked up): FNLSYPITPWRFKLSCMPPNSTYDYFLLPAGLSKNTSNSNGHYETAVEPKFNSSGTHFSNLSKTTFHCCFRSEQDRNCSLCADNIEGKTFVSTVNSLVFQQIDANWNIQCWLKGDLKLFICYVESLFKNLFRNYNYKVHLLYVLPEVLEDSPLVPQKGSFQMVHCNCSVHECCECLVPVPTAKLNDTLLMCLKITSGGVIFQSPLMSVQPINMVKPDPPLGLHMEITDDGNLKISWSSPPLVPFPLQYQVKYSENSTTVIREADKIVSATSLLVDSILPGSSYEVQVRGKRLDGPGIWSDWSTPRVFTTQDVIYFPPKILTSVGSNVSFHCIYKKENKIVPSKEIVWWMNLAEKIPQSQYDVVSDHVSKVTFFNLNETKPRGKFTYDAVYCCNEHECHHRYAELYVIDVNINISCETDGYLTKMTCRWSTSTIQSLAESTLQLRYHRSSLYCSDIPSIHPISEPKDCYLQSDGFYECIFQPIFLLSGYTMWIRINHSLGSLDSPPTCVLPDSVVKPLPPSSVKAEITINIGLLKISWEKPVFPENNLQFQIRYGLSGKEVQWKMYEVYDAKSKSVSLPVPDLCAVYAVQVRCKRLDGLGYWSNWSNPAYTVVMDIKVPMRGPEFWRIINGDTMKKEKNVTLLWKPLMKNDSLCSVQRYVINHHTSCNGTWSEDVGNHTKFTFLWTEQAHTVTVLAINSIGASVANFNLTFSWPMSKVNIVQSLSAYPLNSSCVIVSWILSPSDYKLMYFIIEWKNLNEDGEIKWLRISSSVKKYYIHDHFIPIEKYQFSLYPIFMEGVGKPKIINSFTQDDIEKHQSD

B1: His6-PAS(200)-muLeptin (ligand)
chain: ASPAAPAPASPAAPAPSAPAASPAAPAPASPAAPAPSAPAASPAAPAPASPAAPAPSAPAASPAAPAPASPAAPAPSAPAASPAAPAPASPAAPAPSAPAASPAAPAPASPAAPAPSAPAASPAAPAPASPAAPAPSAPAASPAAPAPASPAAPAPSAPAASPAAPAPASPAAPAPSAPAASPAAPAPASPAAPAPSAPAAVPIQKVQDDTKTLIKTIVTRINDISHTQSVSAKQRVTGLDFIPGLHPILSLSKMDQTLAVYQQVLTSLPSQNVLQIANDLENLRDLLHLLAFSKSCSLPQTSGLQKPESLDGVLEASLYSTEVVALSRLQGSLQDILQQLDVSPEC

Legend:
[1] = target: T1, recombinant LepR-Fc fusion protein
[2] = target: T1, recombinant LepR-Fc fusion protein; assay: cell-based or functional assay

Molecule	EC50 of STAT3-responsive dual luciferase reporter in HEK293 cells transiently transfected with human LepRb (whole receptor on cells); leptin 50 fM to 500 nM, 18 h [1]	other results
PAS(200)-huLeptin (human wild-type leptin, PASylated) (from UniProt P41159 22-167) (ligand)		EC50 of STAT3-responsive dual luciferase reporter in HEK293 cells transiently transfected with human LepRb (whole receptor on cells); PASylated leptin 50 fM to 500 nM, 18 h [1]: 1200 pM
huLeptin^W100E (recombinant, unmodified) (from UniProt P41159 22-167) (ligand)	100 pM	
huLeptin^W100Q (recombinant, unmodified) (from UniProt P41159 22-167) (ligand)	130 pM	
human wild-type leptin (recombinant, unmodified) (from UniProt P41159 22-167) (ligand)	100 pM	
murine leptin (recombinant, unmodified) (from UniProt P41160 22-167) (ligand)	40 pM	
B1		EC50 of STAT3-responsive dual luciferase reporter in HEK293 cells transiently transfected with human LepRb (whole receptor on cells); PASylated leptin 50 fM to 500 nM, 18 h [2]: 160 pM
